Measured values published in patent US20250340662A1 (AKIRAM THERAPEUTICS, published 2025).
Positions count from the first letter of the chain named. Numbers in names are those of the source. Each block holds one binder with its values, some of them ahead of it.

Key:
Human CD44 iso6-Fc = molecular target: T1, Human CD44 iso6-Fc (human, UniProt P16070-6 21-606, limits assumed, chemically biotinylated in the form called Bio-CD44); test: SPR SCK, antibody immobilised, CD44-Fc injected
T1 construct: Negative control antigen, ProMab, HKB11 cells; also called Bio-CD44; bio-CD44
T1 sequence (P16070 other isoform, or with tags, fused parts or gaps limits assumed): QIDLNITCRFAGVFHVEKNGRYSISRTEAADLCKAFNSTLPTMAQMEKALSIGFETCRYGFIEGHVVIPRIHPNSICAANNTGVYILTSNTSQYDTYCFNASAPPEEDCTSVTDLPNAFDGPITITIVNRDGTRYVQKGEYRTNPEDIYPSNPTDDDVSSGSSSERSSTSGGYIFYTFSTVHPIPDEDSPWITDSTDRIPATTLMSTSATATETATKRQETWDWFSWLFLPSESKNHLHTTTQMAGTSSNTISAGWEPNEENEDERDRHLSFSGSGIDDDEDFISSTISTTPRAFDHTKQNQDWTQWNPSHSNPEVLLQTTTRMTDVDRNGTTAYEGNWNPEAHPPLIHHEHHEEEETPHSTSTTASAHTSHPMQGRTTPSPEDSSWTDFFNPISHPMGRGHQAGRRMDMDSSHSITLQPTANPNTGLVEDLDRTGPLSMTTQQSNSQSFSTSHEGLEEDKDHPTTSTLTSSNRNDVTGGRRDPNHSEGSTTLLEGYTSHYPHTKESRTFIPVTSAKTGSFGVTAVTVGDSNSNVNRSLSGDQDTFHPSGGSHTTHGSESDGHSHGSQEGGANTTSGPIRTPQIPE
Procedure: (§1) The SPR measurements were performed on a BIAcore T200 instrument (Cytiva) using a SCK approach. Each antibody was directly immobilized onto a separate surface of a CM5 series S sensor chip using EDC/NHS amine coupling chemistry according to manufacturer's recommendations. Immobilization levels were set to 1500 RU. All experiments were performed at 25° C. in running buffer (HBS, 0.05% Tween20, pH 7.5). A three-fold dilution series of CD44v6 and negative control CD44, comprised of five concentrations ranging between 10-0.12 nM, were prepared in running buffer. A four-fold dilution series of human, cynomolgus and rabbit v6-peptide, respectively, comprised of five concentrations ranging between 100-0.39 nM, were also prepared in running buffer. Each dilution series were sequentially injected, starting with the lowest concentration first, over an immobilized antibody clone and chip surfaces were regenerated with 10 mM glycin-HCl, pH 2.1. See table 10 for specifications of antigens used in SPR measurements. By subtracting the response curve of a reference surface (an activated and deactivated chip surface) and to a blank run (running buffer injected instead of antigen) response curve sensorgrams were obtained. Data was analyzed using the Biacore T200 Evaluation 3.1 software and a 1:1 Langmuir binding model.

Human v6-peptide [1] = molecular target: T2, Human v6-peptide (human, N-terminal biotin); test: SPR SCK, antibody immobilised, peptide injected
T2 construct: Bachem #4108947, 43 amino acids, synthetic; also called Hm v6-peptide; hm v6-peptide
T2 peptide: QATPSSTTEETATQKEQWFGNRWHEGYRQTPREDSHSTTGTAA
Procedure: as §1

Cynomolgus v6-peptide = molecular target: T3, Cynomolgus v6-peptide (cynomolgus, UniProt A0A2K5VJE0 387-429, N-terminal biotin); test: SPR SCK, antibody immobilised, peptide injected
T3 construct: domain: v6-region (43 amino acids); also called Cm v6-peptide; cm v6-peptide
T3 peptide: T2 peptide with T3I, R28L
Procedure: as §1

Rabbit v6-peptide = molecular target: T4, Rabbit v6-peptide (rabbit); test: SPR SCK, antibody immobilised, peptide injected
T4 construct: domain: v6-region (43 amino acids); also called Rb v6-peptide; rb v6-peptide
Procedure: as §1

Human CD44v6 iso4-Fc [2] = molecular target: T5, Human CD44v6 iso4-Fc (human, UniProt P16070-4 21-606, limits assumed, chemically biotinylated in the form called Bio-CD44v6); test: SPR SCK, antibody immobilised, CD44v6-Fc injected
T5 construct: Custom ordered from ProMab, produced in HKB11 cells; The biotinylated and the plain form are kept as one molecule; also called Bio-CD44v6; bio-CD44v6
T5 sequence (P16070 other isoform, or with tags, fused parts or gaps limits assumed): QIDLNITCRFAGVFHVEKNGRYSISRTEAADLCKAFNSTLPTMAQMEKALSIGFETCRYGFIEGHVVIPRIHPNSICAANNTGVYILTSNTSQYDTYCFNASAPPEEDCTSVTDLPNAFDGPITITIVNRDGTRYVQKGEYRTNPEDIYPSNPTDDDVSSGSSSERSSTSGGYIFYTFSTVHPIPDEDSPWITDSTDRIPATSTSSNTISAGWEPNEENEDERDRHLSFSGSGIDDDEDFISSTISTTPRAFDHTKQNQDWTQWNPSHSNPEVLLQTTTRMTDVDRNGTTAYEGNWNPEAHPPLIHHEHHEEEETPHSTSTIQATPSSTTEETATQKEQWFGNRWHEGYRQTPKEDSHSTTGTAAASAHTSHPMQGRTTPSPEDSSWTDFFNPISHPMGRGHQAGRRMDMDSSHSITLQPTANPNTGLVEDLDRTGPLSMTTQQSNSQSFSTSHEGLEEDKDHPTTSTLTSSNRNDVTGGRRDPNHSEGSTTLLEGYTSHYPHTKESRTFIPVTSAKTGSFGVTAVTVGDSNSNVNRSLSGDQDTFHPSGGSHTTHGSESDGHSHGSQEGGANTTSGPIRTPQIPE
Procedure: as §1

Human CD44v6 iso4-Fc [3] = molecular target: T5, Human CD44v6 iso4-Fc; test: SPR SCK, antibody immobilised, CD44v6-Fc injected; apparent KD
Procedure: as §1

Human v6-peptide [4] = molecular target: T2, Human v6-peptide; test: SPR SCK, biotin-peptide on SA chip, antibody injected
Procedure: (§2) For kinetic measurements of human v6-peptide, a streptavidin (SA) sensor chip was used to immobilize the v6-peptide at approximately 20 RU. A five-fold dilution series of each antibody, consisting of five concentrations ranging between 50 nM-0.08 nM, were prepared in running buffer and sequentially injected over the chip surfaces.
(§3) All experiments were performed at 25° C. in running buffer (HBS supplemented with 0.05% Tween20, pH 7.5) and the chip surfaces were regenerated with 10 mM glycine-HCl, pH 2.1. By subtracting the response curve of a reference surface (an α-human Kappa antibody immobilized surface or a streptavidin immobilized surface) and to a blank run (running buffer injected instead of antigen or antibody) response curve sensorgrams were obtained. Data was analyzed using the Biacore T200 Evaluation 3.1 software and a 1:1 Langmuir binding model.

Human CD44v6 iso4-Fc [5] = molecular target: T5, Human CD44v6 iso4-Fc; test: SPR SCK, antibody captured via anti-kappa, CD44v6-Fc injected
Procedure: (§4) Kinetic measurements were performed on a BIAcore T200 instrument (Cytiva) using a SCK approach. An α-human Kappa antibody (GE Healthcare #28958325), functioning as a capture ligand, was immobilized onto all four surfaces of a CM5-S amine sensor chip according to manufacturer's recommendations. Antibodies were injected and captured at equal response units (RU). A four-fold dilution series of CD44v6, consisting of five concentrations ranging between 80 nM-0.3 nM, were prepared in running buffer and sequentially injected over the chip surfaces. Single injections of 100 nM CD44 (negative control) was also performed.
as §3

Human v6-peptide [6] = molecular target: T2, Human v6-peptide; test: SPR SCK, biotin-peptide on SA chip, antibody injected; apparent KD
Procedure: as §2, §3

Human CD44v6 iso4-Fc [7] = molecular target: T5, Human CD44v6 iso4-Fc; test: SPR SCK, antibody captured via anti-kappa, CD44v6-Fc injected; apparent KD
Procedure: as §4, §3

B1: AL-MN114-132 IgG1 LALA (antibody, V domains shown)
VH: EVQLLESGGGLVQPGGSLRLSCAASGFTFSSYAMSWVRQAPGKGLEWVSAISGGGSSTYYADSVKGRFTISRDNSKNTLYLQMNSLRAEDTAVYYCARHYYSDSDYRSSAAMDYWGQGTLVTVSS
VL: DIQMTQSPSSLSASVGDRVTITCRASQSISSYLNWYQQKPGKAPKLLIYAASSLQSGVPSRFSGSGSGTDFTLTISSLQPEDFATYYCQQDLYLLTFGQGTKLEIK
notes: item 20 iii) gives heavy 77 / light 96 without naming the format
binding result (Human CD44 iso6-Fc): no binding (tested: 10 nM highest CD44 concentration)
Kd (Human v6-peptide [1]): 12 nM
koff (Human v6-peptide [1]): 0.013 s⁻¹
kon (Human v6-peptide [1]): 1.1e+06 M⁻¹ s⁻¹
Kd (Cynomolgus v6-peptide): 7.3 nM
koff (Cynomolgus v6-peptide): 0.0096 s⁻¹
kon (Cynomolgus v6-peptide): 1.3e+06 M⁻¹ s⁻¹
Kd (Rabbit v6-peptide): 13 nM
koff (Rabbit v6-peptide): 0.023 s⁻¹
kon (Rabbit v6-peptide): 1.7e+06 M⁻¹ s⁻¹
koff (Human CD44v6 iso4-Fc [2]): 0.00012 s⁻¹
kon (Human CD44v6 iso4-Fc [2]): 1.9e+06 M⁻¹ s⁻¹
Kd (Human CD44v6 iso4-Fc [3]): 0.062 nM

B2: AL-MN114-132 IgG1 LALA IAHA (antibody, V domains shown)
VH: B1 VH
VL: B1 VL
notes: Human IgG1 LALA IAHA, kappa
binding result (Human CD44 iso6-Fc): no binding (tested: 10 nM highest CD44 concentration)
Kd (Human v6-peptide [1]): 22 nM
koff (Human v6-peptide [1]): 0.016 s⁻¹
kon (Human v6-peptide [1]): 730000 M⁻¹ s⁻¹
Kd (Cynomolgus v6-peptide): 17 nM
koff (Cynomolgus v6-peptide): 0.014 s⁻¹
kon (Cynomolgus v6-peptide): 860000 M⁻¹ s⁻¹
Kd (Rabbit v6-peptide): 37 nM
koff (Rabbit v6-peptide): 0.037 s⁻¹
kon (Rabbit v6-peptide): 990000 M⁻¹ s⁻¹
koff (Human CD44v6 iso4-Fc [2]): 0.00021 s⁻¹
kon (Human CD44v6 iso4-Fc [2]): 140000 M⁻¹ s⁻¹
Kd (Human CD44v6 iso4-Fc [3]): 1.5 nM

B3: AL-MN114-444 IgG1 LALA IAHA (antibody, V domains shown)
VH: B1 VH with S30R, Y32F, Y59F
VL: B1 VL with S30G, A50S
notes: Human IgG1 LALA IAHA, kappa
binding result (Human CD44 iso6-Fc): no binding (tested: 10 nM highest CD44 concentration)
Kd (Human v6-peptide [1]): 12 nM
koff (Human v6-peptide [1]): 0.0083 s⁻¹
kon (Human v6-peptide [1]): 710000 M⁻¹ s⁻¹
Kd (Cynomolgus v6-peptide): 11 nM
koff (Cynomolgus v6-peptide): 0.0079 s⁻¹
kon (Cynomolgus v6-peptide): 720000 M⁻¹ s⁻¹
Kd (Rabbit v6-peptide): 15 nM
koff (Rabbit v6-peptide): 0.012 s⁻¹
kon (Rabbit v6-peptide): 820000 M⁻¹ s⁻¹
koff (Human CD44v6 iso4-Fc [2]): 0.00032 s⁻¹
kon (Human CD44v6 iso4-Fc [2]): 320000 M⁻¹ s⁻¹
Kd (Human CD44v6 iso4-Fc [3]): 1 nM

B4: U-MN114-19 IgG1 LALA IAHA (antibody, V domains shown)
VH: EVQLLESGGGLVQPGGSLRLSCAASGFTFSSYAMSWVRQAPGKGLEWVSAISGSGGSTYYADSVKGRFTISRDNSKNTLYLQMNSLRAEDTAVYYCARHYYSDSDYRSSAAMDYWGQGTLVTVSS
VL: B1 VL
notes: also called parental clone U-MN114-19
binding result (Human CD44 iso6-Fc): no binding (tested: 10 nM highest CD44 concentration)
Kd (Human v6-peptide [1]): 17 nM
koff (Human v6-peptide [1]): 0.019 s⁻¹
kon (Human v6-peptide [1]): 1.1e+06 M⁻¹ s⁻¹
Kd (Cynomolgus v6-peptide): 20 nM
koff (Cynomolgus v6-peptide): 0.034 s⁻¹
kon (Cynomolgus v6-peptide): 1.7e+06 M⁻¹ s⁻¹
Kd (Rabbit v6-peptide): 31 nM
koff (Rabbit v6-peptide): 0.067 s⁻¹
kon (Rabbit v6-peptide): 2.2e+06 M⁻¹ s⁻¹
koff (Human CD44v6 iso4-Fc [2]): 0.00012 s⁻¹
kon (Human CD44v6 iso4-Fc [2]): 2.5e+06 M⁻¹ s⁻¹
Kd (Human CD44v6 iso4-Fc [3]): 0.05 nM

B5: U-MN114-19 IgG4 S228P (antibody, V domains shown)
VH: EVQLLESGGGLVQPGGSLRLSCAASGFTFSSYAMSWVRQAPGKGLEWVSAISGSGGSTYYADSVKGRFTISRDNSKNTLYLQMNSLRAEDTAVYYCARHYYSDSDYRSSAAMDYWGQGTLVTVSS
VL: B1 VL
notes: Human IgG4 S228P (EU), kappa; also called MN19; parental clone
koff (Human v6-peptide [4]): 0.00018 s⁻¹
kon (Human v6-peptide [4]): 730000 M⁻¹ s⁻¹
koff (Human CD44v6 iso4-Fc [5]): 0.001 s⁻¹
kon (Human CD44v6 iso4-Fc [5]): 320000 M⁻¹ s⁻¹
Kd (Human v6-peptide [6]): 0.28 nM
Kd (Human CD44v6 iso4-Fc [7]): 3.3 nM

Second part, led by results:

Kd (Human v6-peptide [1]): 17 nM
koff (Human v6-peptide [1]): 0.011 s⁻¹
kon (Human v6-peptide [1]): 620000 M⁻¹ s⁻¹
Kd (Cynomolgus v6-peptide): 13 nM
koff (Cynomolgus v6-peptide): 0.0095 s⁻¹
kon (Cynomolgus v6-peptide): 710000 M⁻¹ s⁻¹
Kd (Rabbit v6-peptide): 22 nM
koff (Rabbit v6-peptide): 0.016 s⁻¹
kon (Rabbit v6-peptide): 710000 M⁻¹ s⁻¹
koff (Human CD44v6 iso4-Fc [2]): 0.00026 s⁻¹
kon (Human CD44v6 iso4-Fc [2]): 230000 M⁻¹ s⁻¹
Kd (Human CD44v6 iso4-Fc [3]): 1.1 nM
B6: AL-MN114-71 IgG1 LALA IAHA (antibody, V domains shown)
VH: B1 VH with T28S, S30R, Y32F, Y59F
VL: B1 VL with S53T
notes: Human IgG1 LALA IAHA, kappa
binding result (Human CD44 iso6-Fc): no binding (tested: 10 nM highest CD44 concentration)

Kd (Human v6-peptide [1]): 14 nM
koff (Human v6-peptide [1]): 0.0093 s⁻¹
kon (Human v6-peptide [1]): 680000 M⁻¹ s⁻¹
Kd (Cynomolgus v6-peptide): 13 nM
koff (Cynomolgus v6-peptide): 0.0085 s⁻¹
kon (Cynomolgus v6-peptide): 680000 M⁻¹ s⁻¹
Kd (Rabbit v6-peptide): 19 nM
koff (Rabbit v6-peptide): 0.015 s⁻¹
kon (Rabbit v6-peptide): 830000 M⁻¹ s⁻¹
koff (Human CD44v6 iso4-Fc [2]): 0.00027 s⁻¹
kon (Human CD44v6 iso4-Fc [2]): 170000 M⁻¹ s⁻¹
Kd (Human CD44v6 iso4-Fc [3]): 1.6 nM
B7: AL-MN114-465 IgG1 LALA IAHA (antibody, V domains shown)
VH: B1 VH with T28S, S30G, G53A, Y59F
VL: B1 VL with A50T
notes: Human IgG1 LALA IAHA, kappa
binding result (Human CD44 iso6-Fc): no binding (tested: 10 nM highest CD44 concentration)

Kd (Human v6-peptide [1]): 58 nM
koff (Human v6-peptide [1]): 0.049 s⁻¹
kon (Human v6-peptide [1]): 830000 M⁻¹ s⁻¹
Kd (Cynomolgus v6-peptide): 44 nM
koff (Cynomolgus v6-peptide): 0.046 s⁻¹
kon (Cynomolgus v6-peptide): 1e+06 M⁻¹ s⁻¹
Kd (Rabbit v6-peptide): 79 nM
koff (Rabbit v6-peptide): 0.15 s⁻¹
kon (Rabbit v6-peptide): 2e+06 M⁻¹ s⁻¹
koff (Human CD44v6 iso4-Fc [2]): 0.00015 s⁻¹
kon (Human CD44v6 iso4-Fc [2]): 130000 M⁻¹ s⁻¹
Kd (Human CD44v6 iso4-Fc [3]): 1.2 nM
B8: U-MN114-19 IgG1 LALA (antibody, V domains shown)
VH: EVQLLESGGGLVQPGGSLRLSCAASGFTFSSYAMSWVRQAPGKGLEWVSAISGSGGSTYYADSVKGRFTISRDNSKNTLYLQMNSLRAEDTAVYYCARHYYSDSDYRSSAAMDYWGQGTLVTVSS
VL: B1 VL
notes: item 20 xxi) gives heavy 149 / light 150 without naming the format; also called parental clone U-MN114-19
binding result (Human CD44 iso6-Fc): no binding (tested: 10 nM highest CD44 concentration)
